The values below come from US9254322B2, “Compositions comprising E-selectin antagonists and uses therefor” (The University of Queensland, priority 2007, dated 2016).

The test system of data set [1] is long-term reconstituting hematopoietic stem cells. Kind of data set: HSC cycling and number in vivo following cytotoxic insult with 5-fluorouracil in wild-type and E-selectin KO mice. The method, then:
Adult mice (10-14 week-old) with homologous deletion of the E-selectin gene were administered intravenously a single dose of 5-FU at 150 mg/kg. At days 2 and 6 following 5-FU, mice were injected intraperitoneally BrdU 100 mg/kg followed by a continuous dose of 1 mg/mL in their drinking water at a concentration of 1 mg/mL. 18 hours following the injection of BrdU. Mice were sacrificed, their bone marrow cells collected as described above and stained with the following combination of antibodies: a) biotinylated antibodies against lineage-specific antigens CD3, CD5, B220/CD45R, CD11b, Gr-1/Ly-6C/G, CD41, Ter119 together with streptavidin conjugated to PercP-Cy5.5; b) fluorescein isothiocyanate (FITC) conjugated anti-CD48; c) phycoerythrin (PE) conjugated anti-CD150; d) PECy7 conjugated anti-Sca-1/Ly-6A/E; f) allophycocyanin (APC) conjugated anti-CD117 antibodies. True hematopoietic stem cells with the phenotype Lineage-negative, Sca1-positive, CD117-positive, CD41-negative, CD48-negative, CD150-positive were counted and sorted as described above. Sorted cells were cytospun on glass slides and stained with anti-BrdU antibodies as described above.

The subject of data set [2] is hematopoietic stem and progenitor cells. Kind of data set: G-CSF mobilization after 8 rounds of cyclophosphamide chemotherapy in wild-type and E-selectin KO mice. Conditions: mice pre-treated with 8 fortnightly rounds of cyclophosphamide 200 mg/kg, 6 weeks rest, then G-CSF; FIG. 8. The data set is classed as in vivo. The method, then: Wild-type and E-selectin KO mice were first administered 8 consecutive rounds of chemotherapy. The chemotherapeutic agent used was the alkylating agent cyclophosphamide administered as a single intraperitoneal injection at 200 mg/kg. Mice were given 8 rounds of cyclophosphamide chemotherapy at fortnightly intervals, then left to recover for 6 weeks before administration of G-CSF (total 1 mg/kg as above) and blood collected 3 days later at HSC mobilization. Blood was analyzed for total leukocyte count, Colony forming cells and phenotypic HSC as described above.

Data set [3] shares this test system. Kind of data set: Mobilization of HSC with recombinant human pegylated G-CSF in wild-type and E-selectin KO mice. The data set is classed as in vivo, C57BL/6 mice. Conditions: 3-day course, total 1 mg/kg s.c. The method, then:
Mobilization was induced in wild-type C57BL/6 mice and in C57BL/6 mice carrying homologous deletion of the E-selectin gene (E-selectin KO mice), using recombinant human G-CSF following a mobilization dosing and protocol similar to that used for human patients.
Adult mice (10- to 14-week old males) were administered recombinant human pegylated G-CSF (granulocyte colony stimulating factor) subcutaneously. Two doses were given 36 hours apart, each at 0.5 mg/kg. The G-CSF used was Neulasta, from Amgen. Neulasta was diluted to 0.1 mg/mL in sterile saline for injection and 100 μL used per injection into 20 g mice. In some experiments, a cohort of ‘control’ mice received saline injections alone.
Blood containing the mobilized HSC, was collected 3 days following the initial G-CSF injection using heparin as anticoagulant (13 units of sodium heparin/mL blood). Four different assays were performed on the blood to determine the extent of HSC mobilization. Some of these assays are surrogate measures of mobilization that are commonly used in the clinical setting; that is they measure associated changes, not HSC content directly. These are total blood leukocyte counts and numbers colony forming cells (CFC) in the blood. The third assay based on phenotypic analysis (expression of a panel of surface markers which define long-term reconstituting HSC), while directly measuring HSC, also detect some progenitor cell populations. Phenotypic enumeration is commonly used to determine HSC mobilization in human patients (a different array of cell-surface markers are used in mice). […]
A) Blood leukocyte counts were measured on a Sysmex KX21 automated haematology analyser (Roche).
B) Colony forming cell assay. […] The number of colony forming cells (CFC) per mL of blood can then been calculated. […]

Turning to `O=c1[nH]cc(F)c(=O)[nH]1` [5FU, 5-fluorouracil], the “HSC numbers per femur, E-selectin-/- versus WT mice” value in data set [1] (day 7 after single dose 150 mg/kg, FIG. 4) was 5 fold. In addition, the “BrdU incorporation in hematopoietic stem cells, E-selectin knock-out versus wild-type mice” value in data set [1] (days 3 and 7 after single dose 150 mg/kg, BrdU in last 17 hours, FIG. 3) was “significantly lower”.

B1: pegylated G-CSF: recombinant human pegylated G-CSF (granulocyte colony stimulating factor), Neulasta from Amgen (protein, UniProt P09919 31-207, looked up)
Granulocyte …: TPLGPASSLPQSFLLKCLEQVRKIQGDGAALQEKLVSECATYKLCHPEELVLLGHSLGIPWAPLSSCPSQALQLAGCLSQLHSGLFLYQGLLQALEGISPELGPTLDTLQLDVADFATTIWQQMEELGMAPALQPTQGAMPAFASAFQRRAGGVLVASHLQSFLEVSYRVLRHLAQP
modifications: PEG (pegfilgrastim)
notes: recombinant human pegylated G-CSF (granulocyte colony stimulating factor), Neulasta from Amgen
On to B1, for which, in data set [2], the “CFC per mL of peripheral blood, E-selectin KO versus wild-type mice” value was determined as 5 fold and the “phenotypic HSC per mL of peripheral blood, E-selectin KO versus wild-type mice” value is 2.5 fold. The “number of phenotypic HSC per mL of mobilized blood, E-selectin KO versus wild-type mice” value in data set [3] (FIG. 7C) came to 2.5 fold. Also, the “number of CFC per mL of mobilized blood, E-selectin KO versus wild-type mice” value in data set [3] (blood collected 3 days after first injection, FIG. 7B) is reported as 2.5 fold. Further, the “number of functional long-term reconstituting HSC per mL of mobilized blood, E-selectin KO versus wild-type mice” value in data set [3] (competitive long-term reconstitution assay) is listed as 12 fold.
